{"source": "patent US20120277161A1", "about": "“INHIBITION OF MULTIPLE CELL ACTIVATION PATHWAYS” (INTER-K PTY LIMITED, priority 2009, published 2012)", "key": {"[1]": {"test_system": "cell adhesion mediated ERK activation in HT29 human colon cancer cells", "experiment": "ERK cell adhesion assay (fibronectin), phospho-ERK1/2 ELISA", "format": "cell-based", "description": "Experimental wells were coated with 100 μL of fibronectin (1-10 μg/mL, Sigma-Aldrich) or 100 μL of 1% BSA (negative control, Sigma-Aldrich). Plates were then incubated at 37° C. for 1 hour before being washed with 100 μL PBS. 100 μL of 1% BSA was then added to each well for 30 minutes to block non-specific binding (37°). HT29 human colon cancer cells were harvested using 0.5% trypsin-EDTA and 50,000 cells were plated into each empty well in 100 μL of serum free media (SFM; DMEM supplemented with 1% (v/v) L-glutamine and 2% (v/v) 1M HEPES solution). 100 μL of SFM with or without PP2 (final concentration 5 μM, specific c-Src inhibitor, Sigma-Aldrich), was then added to each well. Plates were centrifuged at 200 rpm for 5 minutes and then incubated at 37° C. for one hour. Phospho-ERK1/2 levels in the cell groups was evaluated by ELISA (Active Motif assay kit, Australian Biosearch) essentially as described in Example 7.1.\nA study was undertaken to evaluate the effect of the PI3K inhibitor Wortmannin (0.25 μM final concentration) on cell adhesion mediated ERK activation in HT29 human colon cancer cells. Phospho-ERK1/2 levels were measured as an indicator of ERK activation substantially as described in Example 7.1. Increasing levels of phospho-ERK1/2 in HT29 cells correlated with increasing levels of fibronectin in the absence of serum stimulation of the HT29 cells."}, "[2]": {"test_system": "ADDP human ovarian carcinoma cell line", "experiment": "Cell proliferation (MTT) assay, ADDP cells", "format": "cell-based", "description": "(§1) 6.1 Cell Proliferation (MTT) Assay Single cell suspensions of viable trypsinised cells were seeded into 96-well tissue culture plates at a density of 2×10^3 cells per well in a volume of 100 μl of a suitable culture media supplemented with heat inactivated foetal calf serum (FCS) (e.g., Dulbecco's Modified Eagles Medium (DMEM), with 10% v/v FCS, 1% L-glutamine, 2% (v/v) Hepes, and antibiotics). A set of triplicate wells was prepared for each concentration of the peptide dendrimer being tested. Additional sample wells containing untreated cells or media alone were set up in each treatment plate and processed in parallel as reference controls. A zero-time plate of untreated cells and media-alone wells was simultaneously prepared and an MTT assay carried out on this plate at the time of addition of the kinase inhibitor (i.e., polypeptide or dendrimer) to treatment plates. All plates were cultured for 24 hours before addition of the test dendrimer.\nTo prepare the MTT solution 100 mg of MTT (3-(4,5-dimethylthiazolyl-2)-2,5-diphenyltetrazolium bromide) (Cat #. M-128, Sigma, St Louis Mo.), is mixed with 20 ml of PBS at pH 7.4. The resulting solution is filter sterilized (0.2 μM syringe filter) and stored at 4° C. protected from light until use. MTT substrate is cleaved in growing cells to yield a water insoluble salt. After solubilisation of the salt crystals, a coloured product is produced the measurement of which allows quantitation of the proliferative activity of the cultured cells.\nAppropriate concentrations of the kinase inhibitor were prepared by dilution of freshly prepared sterile 1 mM stock solutions into cell culture media to give a final well volume of 200 μl containing 10% v/v FCS. The zero-plate was processed by addition of MTT at this time. Cell culture was continued for a further 24 or 48 hours before addition of 20 μl of MTT in PBS (5 mg/ml, 0.2 um filter sterilised). The MTT cell proliferation assay measures cell proliferation rate and, in instances where cell viability is compromised, the assay indicates a comparative reduction in cell viability. After a 3 hour incubation in the presence of MTT (5% CO2 in air at 37° C.), plates were centrifuged at 450 g for 5 minutes, supernatant was removed by gentle suction and precipitated tetrazolium salt resuspended into 150 μl DMSO:glycine (0.1M glycine, 0.1M NaCl pH 10.5) (6:1 v/v) solution. Plates were gently vortexed to complete solubilisation of crystalline material and absorbance was read at 550 nm using a microplate reader. Sample data were processed to determine the comparative growth of treated samples relative to untreated controls."}, "[3]": {"test_system": "A2780 ovarian cancer cell line", "experiment": "Cell proliferation (MTT) assay, A2780 cells", "format": "cell-based, human", "details": "drug alone; FIG. 6", "description": "as §1, with “A zero-time plate of untreated cells and media-alone wells was simultaneously prepared and an MTT assay carried out on this plate at the time of addition of the kinase inhibitor (i.e., polypeptide or dendrimer) to treatment plates. All plates were cultured for 24 hours before addition of the test dendrimer.” left out\nTo prepare the MTT solution 100 mg of MTT (3-(4,5-dimethylthiazolyl-2)-2,5-diphenyltetrazolium bromide) (Cat #. M-128, Sigma, St Louis Mo.), is mixed with 20 ml of PBS at pH 7.4. […] After solubilisation of the salt crystals, a coloured product is produced the measurement of which allows quantitation of the proliferative activity of the cultured cells.\nAppropriate concentrations of the kinase inhibitor were prepared by dilution of freshly prepared sterile 1 mM stock solutions into cell culture media to give a final well volume of 200 μl containing 10% v/v FCS. […] Plates were gently vortexed to complete solubilisation of crystalline material and absorbance was read at 550 nm using a microplate reader. […]"}, "c-SRC (h)": {"biological_target": "c-SRC (h) (Homo sapiens, UniProt P12931)", "experiment": "c-Src kinase activity assay (cell-free, 33P-ATP)", "format": "biochemical", "details": "peptide 50 μM, relative to control", "description": "In a final reaction volume of 25 μL, c-SRC (h) (5-10 mU) is incubated with 8 mM MOPS pH 7.0, 0.2 mM EDTA, 250 μM KVEKIGEGTYGVVYK (SEQ ID No. 19) (Cdc2 peptide), 10 mM MgAcetate and [γ-33P-ATP] (specific activity approx. 500 cpm/pmol, concentration as required). The reaction is initiated by the addition of the MgATP mix. After incubation for 40 minutes at room temperature, the reaction is stopped by the addition of 5 μL of a 3% phosphoric acid solution. 10 μL of the reaction is then spotted onto a P30 filtermat and washed three times for 5 minutes in 75 mM phosphoric acid and once in methanol prior to drying and scintillation counting."}, "human Lyn": {"biological_target": "human Lyn (Homo sapiens, UniProt P07948)", "sequence (P07948 whole entry)": "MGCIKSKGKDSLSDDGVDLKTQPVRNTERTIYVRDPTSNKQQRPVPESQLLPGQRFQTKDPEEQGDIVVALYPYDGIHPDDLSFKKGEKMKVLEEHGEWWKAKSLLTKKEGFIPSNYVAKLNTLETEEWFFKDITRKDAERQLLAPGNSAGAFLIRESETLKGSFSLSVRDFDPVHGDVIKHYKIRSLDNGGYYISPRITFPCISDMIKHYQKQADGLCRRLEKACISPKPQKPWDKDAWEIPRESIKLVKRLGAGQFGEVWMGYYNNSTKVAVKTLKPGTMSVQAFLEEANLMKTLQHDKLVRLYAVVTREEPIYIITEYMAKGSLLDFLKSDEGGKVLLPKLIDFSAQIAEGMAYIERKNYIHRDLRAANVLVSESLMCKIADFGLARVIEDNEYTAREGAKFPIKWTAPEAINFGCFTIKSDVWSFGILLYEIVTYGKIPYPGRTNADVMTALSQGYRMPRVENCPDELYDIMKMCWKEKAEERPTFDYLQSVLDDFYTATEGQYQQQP", "experiment": "Lyn kinase activity assay", "format": "biochemical", "details": "peptide 50 μM", "description": "In a final reaction volume of 25 μl, human Lyn is incubated with the RSKAKNPLYR peptide (SEQ ID No: 6) in 50 mM Tris buffer pH 7.5, 0.1 mM EGTA, 0.1 mM Na3VO4, 1% mercaptoethanol, 0.1 mg/ml poly(Glu,Tyr) 4:1, 10 mM Mg acetate and [γ-33P-ATP] (specific activity approx. 500 cpm/pmol). The reaction was initiated by the addition of the MgATP mix, incubated for 40 minutes at room temperature prior to being stopped and kinase activity assessed by scintillation counting as per the protocol described for c-Src described in Example 1.1."}, "human Yes": {"biological_target": "human Yes (Homo sapiens, UniProt P07947)", "sequence (P07947 whole entry)": "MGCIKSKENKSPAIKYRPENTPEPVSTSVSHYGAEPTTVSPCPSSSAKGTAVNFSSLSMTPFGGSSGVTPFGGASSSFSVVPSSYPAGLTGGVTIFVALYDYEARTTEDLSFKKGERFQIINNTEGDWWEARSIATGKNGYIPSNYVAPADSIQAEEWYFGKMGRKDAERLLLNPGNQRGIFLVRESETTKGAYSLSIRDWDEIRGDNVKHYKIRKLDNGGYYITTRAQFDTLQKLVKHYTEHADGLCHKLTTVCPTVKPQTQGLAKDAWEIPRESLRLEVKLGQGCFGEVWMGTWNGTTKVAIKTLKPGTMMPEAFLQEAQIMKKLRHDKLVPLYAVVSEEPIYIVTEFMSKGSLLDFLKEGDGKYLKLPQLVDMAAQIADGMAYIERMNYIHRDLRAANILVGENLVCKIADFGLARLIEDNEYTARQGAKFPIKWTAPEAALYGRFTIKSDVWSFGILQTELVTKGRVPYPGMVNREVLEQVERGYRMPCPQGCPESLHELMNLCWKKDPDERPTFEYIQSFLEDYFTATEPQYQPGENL", "experiment": "Yes kinase activity assay", "format": "biochemical", "details": "peptide 50 μM", "description": "In a final reaction volume of 25 μl, human Yes is incubated with the RSKAKNPLYR peptide (SEQ ID No: 6) in 8 mM MOPS buffer pH 7.0, 0.2 mM EDTA, 0.1 mg/ml poly(Glu,Tyr) 4:1, 10 mM Mg acetate and [γ-33P-ATP] (specific activity approx. 500 cpm/pmol). The reaction is initiated by the addition of the MgATP mix, incubated for 40 minutes at room temperature prior to being stopped and kinase activity assessed by scintillation counting again as per the protocol described for c-Src in Example 1.1."}, "MEK1 (h)": {"biological_target": "MEK1 (h) (Homo sapiens, UniProt Q02750)", "experiment": "MEK1 kinase activity assay", "format": "biochemical", "details": "50 μM", "description": "The reaction is initiated by the addition of the MgATP. After incubation for 40 minutes at room temperature, 5 μL of this incubation mix is used to initiate an ERK2 (m) assay."}}}
{"compound": "CC(C)(C)n1nc(-c2ccc(Cl)cc2)c2c(N)ncnc21", "note": "[PP2]", "values": [{"measurement": "phospho-ERK levels, HT29 cells on fibronectin", "setting": "[1]; 5 μM, no serum stimulation, results not shown", "result": "markedly reduced"}]}
{"compound": "COC[C@H]1OC(=O)c2coc3c2[C@@]1(C)C1=C(C3=O)[C@@H]2CCC(=O)[C@@]2(C)C[C@H]1OC(C)=O", "note": "[Wortmannin]", "values": [{"measurement": "reduction of cell adhesion mediated ERK activation", "setting": "[1]; 0.25 μM, HT29 cells", "result": "about 55%"}]}
{"compound": "N.N.[Cl][Pt][Cl]", "note": "[cisplatin, cis-diamminedichloroplatinum (II), reference compound]", "values": [{"measurement": "inhibition of growth of ADDP cell line", "setting": "[2]; drug alone, FIG. 6", "result": "substantially less inhibition of growth"}, {"measurement": "inhibition of growth of A2780 cell line", "setting": "[3]", "result": "highly susceptible"}]}
{"compound": "NPLYR [Peptide 8]", "values": [{"measurement": "% Inhibition of control, c-Src tyrosine kinase activity", "setting": "c-SRC (h)", "result": "negligible or no c-Src inhibitory activity"}]}
{"compound": "RSKAK [Peptide 6]", "values": [{"measurement": "% Inhibition of control, c-Src tyrosine kinase activity", "setting": "c-SRC (h)", "result": "negligible or no c-Src inhibitory activity"}]}
{"compound": "RSKAKNPLYR [Peptide 1]", "values": [{"measurement": "% Inhibition of control, c-Src tyrosine kinase activity", "setting": "c-SRC (h)", "result": "approx. 57%"}, {"measurement": "inhibition of Lyn activity", "setting": "human Lyn", "result": "only relatively low level inhibition"}, {"measurement": "inhibition of Yes activity", "setting": "human Yes", "result": "only relatively low level inhibition"}, {"measurement": "inhibition of MEK1", "setting": "MEK1 (h)", "result": "negligible inhibition"}, {"measurement": "effect in combination with cisplatin, ADDP cells", "setting": "[2]; 20 μM peptide, 72 hour culture, data not shown", "result": "synergistic effect"}]}
{"compound": "WQTGT [Peptide 7]", "values": [{"measurement": "% Inhibition of control, c-Src tyrosine kinase activity", "setting": "c-SRC (h)", "result": "No inhibitory activity"}]}
